Results: patent US20050025768A1 (Biogen, published 2005)
Each block holds one binder with its values, some of them ahead of it.

Legend:
human MCP-1 = biological target: T1, human MCP-1 (human, UniProt P13500 24-99); experiment: KinExA kinetic exclusion assay, in solution
T1 construct: also called hMCP-1; huMCP-1
Experimental: (§1) Polymethylmethacrylate beads activated with NHS were coated with 10 μg recombinant human MCP-1 in 1 ml buffer. The beads were packed into a column in the KinExA instrument for each sample. This packed bead column is able to capture free MCP mAb or Fab flowed through the column. The amount of free mAb or Fab in solution was determined using a secondary goat anti-mouse heavy and light chain IgG-Cy5 conjugate.
(§2) A fixed amount of 11K2 mAb, 1A1 mAb, 11K2 Fab, or 1A1 Fab was incubated with various amounts of human MCP-1, MCP-2 or MCP-3 for three hours. The amount of uncomplexed free antibody remaining in solution was determined by flowing these mixtures over the MCP-1-loaded bead column and labeling with the Cy5 secondary antibody. The fluorescent signal was plotted against the MCP concentration and the affinity was determined using a quadratic curve fit

human MCP-4 = biological target: T2, human MCP-4 (human, UniProt Q99616 24-98, limits assumed); experiment: ELISA, purified mAb
T2 construct: also called hMCP-4
Experimental: (§3) ELISA specificity assays were performed using purified monoclonal antibodies to confirm the binding specificities of the supernatant MCP-specific monoclonal antibodies described above. Antibodies were purified by Protein A affinity column chromatography, according to standard methods known in the art.
(§4) ELISA was performed as previously described in Example 1. Briefly, MaxiSorp 384 well plates were coated with 15-20 μl antigen in PBS. Recombinant purified human antigens included: MCP-1, MCP-2, MCP-3, MCP-4, IL-8, eotaxin, murine MCP-1 (JE), murine MCP-3, murine MCP-5, and rat MCP-1. All antigens, including MCP-3, were immobilized. Plates were washed and purified monoclonal antibody (10 μg/ml) was added to each well and incubated for 1 hour at room temperature. Plates were washed and wells were incubated with 20 μl/well of a 1:25,000 dilution of goat anti-mouse IgG peroxidase conjugate (Jackson Catalog Number 515-036-003). Plates were incubated for 1 hour at room temperature, washed, and 20 μl/well of substrate (TMB, tetramethylbenzidine, Jackson, Catalog Number 515-036-062) was added. Reaction was allowed to proceed and stopped by addition of 20 μl/well of 2M H₂SO₄. Antibodies 1A1 bound specifically to hMCP-1, hMCP-2, hMCP-3, and mMCP-1. Antibodies 11K2, 4N4, 5A 13, 6D21, 6I5, and 7H1 bound specifically to hMCP-1, hMCP-2, hMCP-3, mMCP-1, mMCP-3, and mMCP-5.

human IL-8 = biological target: T3, human IL-8 (human, UniProt P10145 28-99, limits assumed); experiment: ELISA, purified mAb
T3 construct: also called hIL8
Experimental: as §3, §4

human eotaxin = biological target: T4, human eotaxin (human, UniProt P51671 24-97); experiment: ELISA, purified mAb
T4 construct: also called hEotaxin
Experimental: as §3, §4

human MCP-2 [1] = biological target: T5, human MCP-2 (human, UniProt P80075 24-99); experiment: KinExA kinetic exclusion assay, in solution; whole mAb (bivalent IgG1), not Fab
T5 construct: also called hMCP-2; huMCP-2
T5 sequence (looked up): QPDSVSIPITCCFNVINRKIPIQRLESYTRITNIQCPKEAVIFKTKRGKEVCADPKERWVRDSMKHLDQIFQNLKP
Experimental: as §1, §2

cynomolgus MCP-1 = biological target: T6, cynomolgus MCP-1 (cynomolgus, UniProt P61274 24-99); experiment: ELISA, 1 ug/ml synthetic chemokine coated, mAb 10 ug/ml
T6 construct: also called primate MCP-1
Experimental: (§5) MaxiSorp 384 well plates were coated with 15-20 μl antigen in PBS. Recombinant purified human antigens included: MCP-1, MCP-2, MCP-3, MCP-4, IL-8, eotaxin, fractalkine, Gcp-2, DC-CK (Gcp-2 and DC-CK are also chemokines). Plates were incubated with antigen for 2 hours at 37° C. or overnight at 4° C. Non-specific sites were blocked with 80 μl/well of 1% BSA/PBS for 1 hour at room temperature. Plates were washed and 15 μl of hybridoma supernatant was added to each well and incubated for 1 hour at room temperature. Plates were washed and wells were incubated with 20 μl/well of a 1:25 000 dilution of goat anti-mouse IgG peroxidase conjugate (Jackson Catalog Number 515-036-003). Plates were incubated for 1 hour at room temperature, washed, and 20 μl/well of substrate (TMB, tetramethylbenzidine, Jackson, Catalog Number 515-036-062) was added. Reaction was allowed to proceed and stopped by addition of 20 μl/well of 2M H₂SO₄. Reactive clones were picked for further analysis. Isotyping of hybridoma supernatants was performed by antigen-dependent ELISA. Briefly, wells were coated with 50 μl of human MCP-1 (5 μg/ml) for 1 hour at 37° C. Wells were washed 4 times and blocked with PBS/1% BSA. Isotyping of hybridoma supernatants was then performed using a mouse immunoglobulin screening/isotyping kit (Zymed Laboratories, San Francisco, Calif.) as recommended by the manufacturer.
(§6) In addition, both 1A1 and 11K2 mAbs recognize primate MCP-1. Plates were coated with 1 μg/ml of chemically synthesized chemokines (corresponding to the cynomolgus and rhesus MCP-1 sequences) and probed with 10 μg/ml of monoclonal antibodies, including MOPC21, 1l K2, 3N10, 1A1, D9, and 1M11, as described above.

rhesus MCP-1 = biological target: T7, rhesus MCP-1 (rhesus, UniProt P61275 24-99); experiment: as above
T7 construct: also called primate MCP-1
Experimental: as §5, §6

human fractalkine = biological target: T8, human fractalkine (human, UniProt P78423 25-100, limits assumed); experiment: ELISA, hybridoma supernatant
T8 sequence (looked up): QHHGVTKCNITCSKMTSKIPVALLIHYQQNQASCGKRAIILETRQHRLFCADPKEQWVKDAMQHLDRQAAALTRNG
Experimental: as §5

human Gcp-2 = human Gcp-2 (human, UniProt P80162 38-114, limits assumed); experiment: ELISA, hybridoma supernatant
Experimental: as §5

human DC-CK = biological target: T9, human DC-CK (human, UniProt P55774 21-89, limits assumed); experiment: ELISA, hybridoma supernatant
T9 construct: reading it as DC-CK1/CCL18 is mine
T9 sequence (looked up): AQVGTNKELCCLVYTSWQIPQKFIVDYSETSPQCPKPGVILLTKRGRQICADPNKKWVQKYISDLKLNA
Experimental: as §5

human MCP-2 [2] = biological target: T5, human MCP-2; experiment: KinExA kinetic exclusion assay, in solution; Fab (monovalent), not whole mAb
Experimental: as §1, §2

human MCP-2 [3] = biological target: T5, human MCP-2; experiment: KinExA kinetic exclusion assay, in solution
Experimental: as §1, §2

B1: 1A1 (antibody, IgG1, V domains shown)
VH: EVQLQQSGAELVRSGASVKLSCTASGFNIKDNYMHWVKQRPEQGLEWIGWIDPENGDTEYAPKFQGKATMTADTSSNTAYLQLSSLTSEDTAVYYCNTWAYYGTSYGGFAYWGQGTTVTVSS
VL: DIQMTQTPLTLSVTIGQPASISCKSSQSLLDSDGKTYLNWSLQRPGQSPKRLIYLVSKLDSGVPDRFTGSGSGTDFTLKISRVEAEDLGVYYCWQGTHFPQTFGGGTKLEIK
notes: ATCC PTA-3990; also called 1A1.1; 1A1 mAb
Kd (human MCP-1): < 0.0007 nM | binding result (human MCP-4): no binding (tested: 10 ug/ml) | binding result (human IL-8): no binding (tested: 10 ug/ml) | binding result (human eotaxin): no binding (tested: 10 ug/ml) | Kd (human MCP-2 [1]): 0.0012 nM | binding result (cynomolgus MCP-1): binds | binding result (rhesus MCP-1): binds | binding result (human fractalkine): no binding | binding result (human Gcp-2): no binding | binding result (human DC-CK): no binding

B2: 1A1 Fab (Fab, V domains shown)
VH: B1 VH
VL: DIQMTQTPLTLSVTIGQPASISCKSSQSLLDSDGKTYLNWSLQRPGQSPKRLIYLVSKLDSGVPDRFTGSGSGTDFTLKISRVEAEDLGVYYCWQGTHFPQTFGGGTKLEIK
notes: Fab of the murine IgG1 mAb; also called Fab fragment of 1A1
Kd (human MCP-1): 0.013 nM | Kd (human MCP-2 [2]): 0.32 nM

B3: 11K2 (antibody, IgG1, V domains shown)
VH: EVQLQQSGAELVKAGASVKLSCPASGLNIKDTYMHWVKQRPEQGLEWIGRIDPANGNTKFDPKFQGKATITADTSSNTAYLQLSSLTSEDTAVYYCARGVFGFFDYWGQGTTLTVSS
VL: DIQMTQSSSSFSVSLGDRVTITCKATEDIYNRLAWYQQKPGSAPRLLISGATSLETGVPSRFSGSGSGKDYTLSITSLQTEDVATYYCQQFWSAPYTFGGGTKLEIK
notes: ATCC PTA-3987; also called 11K2.1; 11K2 mAb
Kd (human MCP-2 [3]): 0.018 nM | Kd (human MCP-1): < 0.0004 nM | binding result (human MCP-4): no binding (tested: 10 ug/ml) | binding result (human IL-8): no binding (tested: 10 ug/ml) | binding result (human eotaxin): no binding (tested: 10 ug/ml) | binding result (cynomolgus MCP-1): binds | binding result (rhesus MCP-1): binds | binding result (human fractalkine): no binding | binding result (human Gcp-2): no binding | binding result (human DC-CK): no binding

B4: 6D21 (antibody, IgG1, V domains shown)
VH: B3 VH
VL: B3 VL
notes: IgG1; ATCC PTA-3989; also called 6D21.1
binding result (human MCP-4): no binding (tested: 10 ug/ml) | binding result (human IL-8): no binding (tested: 10 ug/ml) | binding result (human eotaxin): no binding (tested: 10 ug/ml) | binding result (human fractalkine): no binding | binding result (human Gcp-2): no binding | binding result (human DC-CK): no binding

B7: 11K2 Fab (Fab, V domains shown)
VH: B3 VH
VL: B3 VL
notes: Fab of the murine IgG1 mAb; also called Fab fragment of 11K2
Kd (human MCP-2 [3]): 0.43 nM | Kd (human MCP-1): 0.011 nM

Continued, values first:

binding result (human MCP-4): no binding (tested: 10 ug/ml) | binding result (human IL-8): no binding (tested: 10 ug/ml) | binding result (human eotaxin): no binding (tested: 10 ug/ml) | binding result (human fractalkine): no binding | binding result (human Gcp-2): no binding | binding result (human DC-CK): no binding
B5: 5A13 (antibody, IgG1, V domains shown)
VH: B3 VH
VL: B3 VL
notes: IgG1; ATCC PTA-3995; also called 5A13.1

binding result (human MCP-4): no binding (tested: 10 ug/ml) | binding result (human IL-8): no binding (tested: 10 ug/ml) | binding result (human eotaxin): no binding (tested: 10 ug/ml) | binding result (human fractalkine): no binding | binding result (human Gcp-2): no binding | binding result (human DC-CK): no binding
B6: 7H1 (antibody, IgG1, V domains shown)
VH: B3 VH
VL: B3 VL
notes: IgG1; ATCC PTA-3985; also called 7H1.1

binding result (human MCP-4): no binding (tested: 10 ug/ml) | binding result (human IL-8): no binding (tested: 10 ug/ml) | binding result (human eotaxin): no binding (tested: 10 ug/ml) | binding result (human fractalkine): no binding | binding result (human Gcp-2): no binding | binding result (human DC-CK): no binding
B8: 6I5 (antibody, IgG1, V domains shown)
VH: B3 VH
VL: B3 VL
notes: IgG1; ATCC PTA-3986; also called 615; 6I5.1

binding result (human MCP-4): no binding (tested: 10 ug/ml) | binding result (human IL-8): no binding (tested: 10 ug/ml) | binding result (human eotaxin): no binding (tested: 10 ug/ml) | binding result (human fractalkine): no binding | binding result (human Gcp-2): no binding | binding result (human DC-CK): no binding
B9: 4N4 (antibody, IgG1, V domains shown)
VH: B3 VH
VL: B3 VL
notes: IgG1; ATCC PTA-3994; also called 4N4.1
